Laboratory results: paper doi:10.1101/2023.05.22.541692

Biological target: AtCYT6-CTD (C-terminal cystatin domain of phytocystatin 6) (UniProt Q8H0X6)
Test: Enzyme inhibition kinetics
Settings: pH 5.5; 25 °C; 100 mM NaCl; 20 mM citric acid pH 5.5

Sequence of UniProt Q8H0X6 (Q8H0X6 whole entry, the tested form may be a part): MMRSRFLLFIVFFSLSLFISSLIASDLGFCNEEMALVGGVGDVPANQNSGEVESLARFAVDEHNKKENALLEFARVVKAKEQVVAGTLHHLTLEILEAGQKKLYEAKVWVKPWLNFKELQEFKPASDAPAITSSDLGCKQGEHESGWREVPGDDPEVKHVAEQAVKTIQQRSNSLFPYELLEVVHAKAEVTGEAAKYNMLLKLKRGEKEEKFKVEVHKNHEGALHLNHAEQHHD

## AtLEGβ (legumain isoform β, vacuolar processing enzyme β), activated catalytic domain
  Ki: 0.61 ± 0.23 nM
